From the nanobody polyreactivity screen of Harvey et al. (2022)

Experiment: yeast display, Sf9 membrane polyspecificity reagent, FACS + sequencing; frameworks hold sequencing errors
Summary of the method: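 Polyreactivity labels are assigned by the sorting gate from which each nanobody was recovered. The gates were low and high (top ~1%), set on anti-HA fluorescence for expression and streptavidin fluorescence for reagent binding. Before sorting, galactose-induced (36–48 hours) yeast display cells were stained for 1 hour at 4 °C with 10% biotinylated, detergent-solubilized Sf9 membrane reagent.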

## QVQHVESGGGLVQAGGSLRLSCAASGRTSFNYTQGWYRQAPGKERELVAAITSGGDTYYADSVKGRFTISRDNAKNTVYLPMNSLKPEDTAVYYCAVDDLGSEYDYWGQGTQVTVSS
  polyreactivity (PSR sort gate): low polyreactivity

## QVQLVESGGGLVQAGGSLRLSCAASGRIFSRNAMGWYRQAPGKERELVAAITSGGSTYYADSVKGRFTISRDNAKNTVYLQMNSLKPEDTAVYYCAKRLTYYSWYHLYDYWGQGTQVTVSS
  polyreactivity (PSR sort gate): high polyreactivity

## QVQLVESAAGLVQAGGSLRLSSAASGSIFGPYAMGWYRQAPGKERELVAVISSGDSTNYADSVKGRFTISRDNAKNTVYLQMNSLKPEDTAVYYCATRYLLYRGGHSLFYHFDYWGQGTQVTVSS
  polyreactivity (PSR sort gate): low polyreactivity

## QVQLVESGGGLVQAGGSLRLSCAASGRTFWYYAMVWSRQAPGKERELVAGITFTGGRTYYADSVKGRFTISRDNSKNTVYLQMNSLKPEDTAVYYCAAAGLDVGRKDRDGYWGQGTQVTVSS
  polyreactivity (PSR sort gate): low polyreactivity

## QVQLVESGGGLVQAGGSLRLSCADSGSTFHPYAMGWYRKAPGKERELVAAISWTGGRTYYADSVKGRFTISRDNSKNTVYLQMNSLKPEDTAVYYCAARTYGKVGYWGQGTQVTVSS
  polyreactivity (PSR sort gate): high polyreactivity

## QVHLVESGGGFVQAGGSLGLSCAASGLTFSGNTMGCYTPAPGKERELVAAISSDGSTNYADSVKGRFTLSRDNAKYSVYLQMNSLKPEDTAVYYCNARVRYYFAFWRDYWGQGTQVTVSS
  polyreactivity (PSR sort gate): low polyreactivity

## QVQLVETGGGLVQAGGSLRLSCAASGCIITYYAMGWYRPAPGKERELVAAITASGSRTYYADSVKGRFTISRDNAKNTVYLQMNSLKPEDTAVYDCASDNWQWYPSTWYDYWGQGTQVTVSS
  polyreactivity (PSR sort gate): high polyreactivity

## QVQLVESGGGLVLAGGSLRLSCAASGRIFTSARGWYRQAPGKERELVAAISSSGGRTYYADSVKGRFTISRDNAKNTVYLQMNSLKPEDTAVYYCNTRPGSVFRAGGDYWGQGTQVTVSS
  polyreactivity (PSR sort gate): high polyreactivity

## QVQLVESGGGLVQAGGSLRLSCAASGFTFTTNAMGWYRQAPGKERELVAAISKRGTRTYYADSVKGRFTISRDNAKNTVYLQMNSLKPEDTAVYYCAAASVAGDKFDYWGQGTQVTVSS
  polyreactivity (PSR sort gate): high polyreactivity

## QVQLVESGGGLVQAGGSLRLSCAASGSTFYNNAMGWYRQAPGKERESVAAITASGGRTYYADSVKGRFTISRDNAKNTVYLQMNSLKPEDTAVYYCAARGFDRYYWGQGTQVTVSS
  polyreactivity (PSR sort gate): high polyreactivity

## QVQLVESGGGLVQAGGRLRLSCAASGFTFTRYTMGWYRQAPGKERELVARITRSGASTYYADSVKGRFTISRDNAKNTVYLQMNSLKPEDTAVYYCAADTWSYTTRYYYWGQGTQVTVSS
  polyreactivity (PSR sort gate): high polyreactivity

## QVQLVESGGGLVQAVGSLRLSCAASVIIFDVNAMGWYRQAPAKERELVATISKRGGTTYYADSVKGRFTISRDNAKNTVYLQMYSLKPEDTAVYYCAARHQTLRSYRYDYWGQGTQVTVSS
  polyreactivity (PSR sort gate): low polyreactivity

## QVQLVESGGGLVQAGGSLRLSCAASGYTFRFNAMGWYRQAPGKERELVARISKSGGSTYYADSVKGRFTISRDNAKNTVYLQMNSLKPEDTAVYYCAAKDYVWGQGTQVTVSS
  polyreactivity (PSR sort gate): low polyreactivity

## QVQLVESGGGLVQAGGSLRLSCAASGSIFEYNAMGWYRQAPGKERELVAAITDTGSITYYADSVKGRFTISRDNAKNTVYLQMNSLKPEDTAVYYCAARAYPATAVDRRQPGNYWGQGSQVTVSS
  polyreactivity (PSR sort gate): low polyreactivity

## QVQLVESGGGLVQEGGSLRLSCAASGSTFSWYTMGWYRQAPGKERELVAAITRGGTTYYADSVKGRFTISRDNAKNTVYLQMISLKPEDTAVYYCAARYSRDVRMGYWGQGTQVTVSS
  polyreactivity (PSR sort gate): high polyreactivity

## QVQLVESGGGLVQAGGSLRLSCAASGITFDGNAMGWYRQEPGKERELVAAIDFSGGSTTYADSVKGRFTISRDNAKNTVYLQMNSLKPEDTAVYYCAAVDWYGFLAVEEYYWGQGTQVTVSS
  polyreactivity (PSR sort gate): high polyreactivity

## QVQLVESGGGLDQAGGSLRLSCAASGRTFYIYTMGWYRQAPGKERELVAAISSSGDSTYYADSVKGRFTISRDNGKNTVYLQMNSLKPEDTAVYYCAAYATYPDEYWGEGTQVTVSS
  polyreactivity (PSR sort gate): low polyreactivity

## QVQLVDSGGGLVQAGGSLRLSCAACGSTFVLYGMGWYRQAPGKQRELVADITGGGSSTYYADSVKGRFTISRDYAKNTVYLQMNSLKPEDTAVYYCNADYYPFYWIEPATPYLGFDYWGQGTQVTVSS
  polyreactivity (PSR sort gate): low polyreactivity

## QVQLVESGGGLVQAGGSLRLSCAASGRIFAPNAMGWYRQAPGKEREFVASIRWNGGSTYYADSVKGRFTISRDNAKNTVYLQMNSLKPADTAVYYCAARGWGYRRNYVYAWYDYWGQGTQVTVSS
  polyreactivity (PSR sort gate): high polyreactivity

## QVQLVESGGGLVQAGGSLRLSWAASGSTFYPYAMGWYRPAPGKERELVAAISSSSSTNYADSVKGRFTISRDNAKNTVYLQMNSLKPEDTAVYYCAVTRVIESKQIRYDYWGQGTQVTVSS
  polyreactivity (PSR sort gate): low polyreactivity

## QVQLVESGGGLVQAGGSLRLSCAASGFIFQEYVMGWYRQAPGKERELVAAISRSGGRTYYADSVKGRFTISRDNAKNTVYLQMNSLKPEDTAVYYCAATYTKSHGVRYYHWGQGTQVTVSS
  polyreactivity (PSR sort gate): high polyreactivity

## QVQLVESGGGLVQAGGSLRLSFAASGRTFEPYPLGWYRQAPGKERELVAAIDVGDGTTYYAYSVKGRFTISRDNAKYTVYLELNSLKPEDTAVYYCAADVIGFVGSEDYWGQGTQVTVSS
  polyreactivity (PSR sort gate): low polyreactivity

## QVQLVDSGGGLLQAGGILSLSCAASGSIFPYYAMGWYRQAPGKERELVAVITTVGGSTYYADSVKGRFTISRDNAKYTVYLQMNSLKPEDTAVYYCADEEDYIYFYFSMDYWGQGTQVTVSS
  polyreactivity (PSR sort gate): low polyreactivity

## QVQLVESGGGLVQAGGSLRLSCAASGIICYENTMGWYRQAPGKERELVAAINSGGSTYYADSVKGRFTISRDNAKNTVYLQMNSLKPEDTAVYYCAADDYSGLYYSSTYRYEYWGQGTQVTVSS
  polyreactivity (PSR sort gate): low polyreactivity

## QVQLVESGGGLVQAGGSLRLSCAASGSIFGHNTMGWYRPAPGKERELVAAITWNGGRTYYADSVKGRFTISRDNAMNTVYLQMNSLKPEDTAVYYCNAVVKTYAYKAHRYPSTRLNYWGQGTQVTVSS
  polyreactivity (PSR sort gate): high polyreactivity

## QVQLLESGGGLVQAGGSLRLSSAASGRIFLGYTMGWYRPAPGNERELVAAIRLSGGTTRYADSVKGRFTISRDNAKNTVYLQMYSLKPEDTAVYYCAARDRRTYSLYYWGQGSQVTVSS
  polyreactivity (PSR sort gate): high polyreactivity

## QVQVVESGGGLVQAGGSLRLSCAASGRTFYPYAMGWYRQAPGKERELVAAISSSGGSTYYADSVKGRFTISRDNAKNTDYLPMNSLKPEDTAVYYCAAVASKYKYTGGMDYWGQGTQVTVSS
  polyreactivity (PSR sort gate): high polyreactivity

## QVQLVESGGGLVQAGGSLRLSCAASGSIFRRNTMGWSRQATGKERELVAAITYRGGSTYYADSVKGRFTISRDNAKNTDYLQMNSLKPEESAVYYCARYLWYYRVSKSDSWGQGTQVTVSS
  polyreactivity (PSR sort gate): high polyreactivity

## QVQLVESGGGLVQAGGSLRLSCAASGFIFDINAMGWYRQAPGKERELVAAISYSGGSTYYADSVKGRFTISRDNAKNNVYLQMNSLKPEDTAVYYCAADSGPDSDEGDYWGQGTQVTVSS
  polyreactivity (PSR sort gate): low polyreactivity

## QVQLVESGGGLVQAGGSLRLSCAASGSTFDANAMGWYRQAPGKERELVAAISYSDGTTYYADSVKGRFTISRDNAKNTVYLQMNSLKPEDTAVYYCAAELFTYDGEEDYWGQGTQVTVSS
  polyreactivity (PSR sort gate): high polyreactivity

## QVQLVESGGGLVQAGGSLRLSCAASGGTFYYYAMGWYRQAPGKERELVAAISRDGSTYYADSVKGRFTISRDNAKNTVYLQMNSLKPEDTAVYYCAVRTRRKYGYWGQGTQVTVSS
  polyreactivity (PSR sort gate): high polyreactivity

## QVQLVESRGGLVQAGGSLRLSCAASGRILDLNSMGWYRQAPGKEREFVAAISYSGGRTYYADSVKGRFTISRDNAKNTVYLQMNSLKPEDTAVYYCATDDVWKDGYWGQGTQVTVSS
  polyreactivity (PSR sort gate): low polyreactivity
